Data set [1] addresses SAP54 (purified, secreted part) (Aster Yellows-Witches' Broom phytoplasma (Candidatus Phytoplasma asteris strain AY-WB)). Put plainly: dynamic light scattering.
The data set “dynamic light scattering” concerns the molecule itself. The experiment in a line: dynamic light scattering.

What is called stoichiometry N is a count of units in the complex or per binding partner. In data set [1], “SAP54 (purified, secreted part) (natural protein)” returned a stoichiometry N of 2.

B1: K-domain of SEP3 (SEP3^75-178) (domain or fragment, A. thaliana, UniProt O22456-1 75-178, looked up)
chain: YGAPEPNVPSREALAVELSSQQEYLKLKERYDALQRTQRNLLGEDLGPLSTKELESLERQLDSSLKQIRALRTQFMLDQLNDLQSKERMLTETNKTLRLRLADG
Regarding B1, the “stoichiometry N” value in the data set “dynamic light scattering” stood at 4.

The values are drawn from doi:10.1101/772699 (bioRxiv, 2019).
